Entries after “also recorded” stand apart in the source; their conditions may differ.
Assay: Temperature stability of the ceramidase
Type: physicochemical
Details: 20 mM Tris-HCl pH 7.5, 0.1% polidocanol (Lubrol PX)
Experimental: The activity of the ceramidase can be determined in accordance with the method described, for instance, in J. Biol. Chem., 275, 3462-3468 (2000). Concretely, a reaction mixture prepared by dissolving 550 pmol of 12-((N-(7-nitrobenz-2-oxa-1,3-diazol-4-yl)amino)dodecanoyl)sphingosine, hereinafter referred to as C12-NBD-ceramide [Anal. Biochem., 263, 183-188 (1998)], 1.0% (W/V) sodium cholate and a suitable amount of an enzyme (ceramidase) in 20 μl of 25 mM Tris-hydrochloric acid buffer (pH 7.5) is incubated at 37° C. for 30 minutes. The reaction mixture is incubated in a boiling water bath for 5 minutes, thereby stopping the reaction. The resulting reaction mixture is further evaporated to dryness under reduced pressure. The dried solid is dissolved in chloroform/methanol=2/1 (V/V), and developed by silica gel thin layer chromatography (developing solvent: chloroform/methanol/25% aqueous ammonia=90/20/0.5 (V/V/V)). Thereafter, the 12-(N-7-nitrobenz-2-oxa-1,3-diazol-4-yl)amino)dodecanoyl acid, hereinafter referred to as C12-NBD-fatty acid generated by the above-mentioned reaction is quantified by using CS-9300 Chromatoscanner (manufactured by Shimadzu Corporation) at an excitation wavelength of 475 nm and a fluorescent wavelength 525 nm. […]

B1: ceramidase: isolated and purified neutral/alkaline ceramidase derived from a mouse liver, mature form SEQ ID NO: 14 (protein, listed as Mus sp.)
chain: FSGYYIGVGRADCTGQVSDINLMGYGKNGQNARGLLTRLFSRAFILADPDGSNRMAFVSVELCMISQRLRLEVLKRLESKYGSLYRRDNVILSAIHTHSGPAGFFQYTLYILASEGFSNRTFQYIVSGIMKSIDIAHTNLKPGKIFINKGNVANVQINRSPSSYLLNPQSERARYSSNTDKEMLVLKLVDLNGEDLGLISWFAIHPVSMNNSNHFVNSDNMGYAAYLFEQEKNKGYLPGQGPFVAGFASSNLGDVSPNILGPHCVNTGESCDNDKSTCPNGGPSMCMASGPGQDMFESTHIIGRIIYQKAKELYASASQEVTGPVLAAHQWVNMTDVSVQLNATHTVKTCKPALGYSFAAGTIDGVSGLNITQGTTEGDPFWDTLRDQLLGKPSEEIVECQKPKPILLHSGELTIPHPWQPDIVDVQIVTVGSLAIAAIPGELTTMSGRRFREAIKKEFALYGMKDMTVVIAGLSNVYTHYITTYEEYQAQRYEAASTIYGPHTLSAYIQLFRDLAKAIATDTVANMSSGPEPPFFKNLIASLIPNIADRAPIGKHFGDVLQPAKPEYRVGEVVEVIFVGANPKNSAENQTHQTFLTVEKYEDSVADWQIMYNDASWETRFYWHKGILGLSNATIYWHIPDTAYPGIYRIRYFGHNRKQELLKPAVILAFEGISSPFEVVTT
Activity after treatment at 37° C. for 24 hours: reduced activity not being observed; also recorded: does not show the reduced activity | Activity after treatment at 60° C. for 1 hour, relative to activity before the treatment: about 30%

— patent US7449553B2, “Antibody that binds ceramidase” (Takara Bio Inc., priority 1999, dated 2008)
